Assay results: PMC4571306 (Molecular Biology of the Cell, 2015)

B2: HS-Cnl1 (natural protein, S. cerevisiae, UniProt Q06333 1-122, looked up)
chain: MQDNSSHSRESASAGDDPLGIDKLTVDYDYLLYKMRDYVQSIQLDTTELCKKQNEVMVNGIIENTIDKNIAKFKELLEKCDTLENHYEMLNQLAIITDTFKERIAEAVNNYNSLKKGASKSK
B4: Vab2-GST (natural protein)
chain: MVADLTKGILKWKSRIEFDAVGSSSYYEELKGLPPLASHKKLTQAAIFNSTKYELLQVKKDILSIYEVVSRDIDEERNQMQQIELQLKKSLKKVEHSYKNVLKQRASTNCINGNDRLLANAEKKIGSLNEELACVNDIVSDIVNNLTALNANLPKKAQLLKDDSINVAHYPLLFDFLHKSCPKSIIATSEASIHENASPSPLLEHDELPAESINSFYGENELQSDSLAPLQTHDDNISSCKKILPPKFNTTSGPSIETNFENISADGLTYTKCSLKNSISLT

Legend:
Assay in all cases: pull-down
GST-Snn1 = GST-Snn1 (S. cerevisiae, UniProt P48232 1-102)
Vab2-GST = target: B4
GST-Kxd1 = target: T1, GST-Kxd1 (S. cerevisiae, UniProt P53158 1-218)
T1 sequence (looked up): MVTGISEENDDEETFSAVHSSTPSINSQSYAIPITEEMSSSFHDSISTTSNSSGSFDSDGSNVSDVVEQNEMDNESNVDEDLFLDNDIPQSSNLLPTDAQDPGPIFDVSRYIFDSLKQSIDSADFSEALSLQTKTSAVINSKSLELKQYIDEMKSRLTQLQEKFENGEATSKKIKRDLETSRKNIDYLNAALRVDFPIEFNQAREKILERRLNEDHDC

HS-Cnl1 = target: B2
HS-Snn1 = HS-Snn1 (S. cerevisiae, UniProt P48232 1-102)

B1: HS-Bli1 (natural protein, S. cerevisiae, UniProt P35727 1-113, looked up)
chain: MGEQNKLYYDVEKLVNSLQESFDLDCAQSVSLFTSKSRSNEAWLEELENKFKLKDDVELDDVENLRAEIDMKLNMLEDKVSYYERLYKELEEFQNEIKIKTVVNNRRQSRTPK
binding result (GST-Snn1): binds
binding result (Vab2-GST): binds

B2
binding result (GST-Kxd1): binds

B3: GST-Bli1 (natural protein, S. cerevisiae, UniProt P35727 1-113, looked up)
chain: MGEQNKLYYDVEKLVNSLQESFDLDCAQSVSLFTSKSRSNEAWLEELENKFKLKDDVELDDVENLRAEIDMKLNMLEDKVSYYERLYKELEEFQNEIKIKTVVNNRRQSRTPK
binding result (HS-Cnl1): binds

B4
binding result (HS-Snn1): binds
